Reference: patent US6899879

Molecular target: human CD40 antigen on the surface of human B cells (human) (UniProt P25942)
Test: cell-based or functional assay

Chain of UniProt P25942 (P25942 21-277): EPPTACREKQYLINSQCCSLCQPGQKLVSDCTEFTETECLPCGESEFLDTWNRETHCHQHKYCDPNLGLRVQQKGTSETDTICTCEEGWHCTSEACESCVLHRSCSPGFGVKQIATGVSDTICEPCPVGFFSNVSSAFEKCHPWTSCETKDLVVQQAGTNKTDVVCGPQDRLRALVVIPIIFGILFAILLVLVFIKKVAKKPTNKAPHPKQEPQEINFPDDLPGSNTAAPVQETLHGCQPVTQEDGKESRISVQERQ

50% of maximal inhibition of human T-cell induced immunoglobulin production by human B cells: 30 ng/mL
concentration giving complete inhibition of EL4B5-induced human B-cell proliferation: 10 ng/mL
half-maximal inhibition of EL4B5-induced human B-cell proliferation: 1 ng/mL
percentage of inhibition of immunoglobulin production by human B cells: 40 to 70%
Substance: anti-CD40 monoclonal antibody 5D12
